# Results reported in patent publication US20080274954.
# Molecular target: Cdc42 (SEQ ID NO: 12) expressed as an N-terminal 3x FLAG-tagged protein
protein,measurement,value
sh04009DH/PH protein (SEQ ID NO: 6) with FLAG-tag (3x) at the C-terminal (protein) MEELSENSSSTPSEEQDEEASQSRHRHCENKQQMRTNVIREIMDTERVYIKHLRDICEGYIRQCRKHTGMFTVAQLATIFGNIEDIYKFQRKFLKDLEKQYNKEEPHLSEIGSCFLQNQEGFAIYSEYCNNHPGACLELANLMKQGKYRHFFEACRLLQQMIDIAIDGFLLTPVQKICKYPLQLAELLKYTTQEHGDYSNIKAAYEAMKNVACLINERKRKLESIDKIARWQVSIVGWEGLDILDRSSELIHSGELTKITKQGKSQQRTFFLFDHQLVSCKKDLLRRDMLYYKGRLDMDEMELVDLGDGRDKDCNLSVKNAFKLVSRTTDEVYLFCAKKQEDKARWLQACADERRRVQEDKEMGMEISENQKKLAMLNAQKAGHGKSKGYNRCPVAPPHQGLHPIHQRHITMPTSVPQQQVFGLAEPKRKSSLFWHTFNRLTPFRK,"effector pull-down assay: amount of active (GTP-bound) Cdc42 bound to the PAK-1 effector bead, Western blot with anti-FLAG antibody","In the cell lysate (lane 4 in FIG. 2) prepared from the cells in which the sh04009DH/PH protein was co-expressed with Cdc42, the band was detected more strongly that in the cell lysate (lane 2 in FIG. 2) prepared from the cells in which only Cdc42 was expressed"
